One test deals with DnaE (Bacillus subtilis) (UniProt O34623). As to conditions: cited from earlier work.
Test [1] has as its target T7 primase-helicase (Escherichia phage T7) (UniProt P03692). As to conditions: cited from earlier work.
Test [2] deals with T1, polyhistidine-tagged Pol1B (recombinant, fluorescently labelled) (Arabidopsis thaliana, UniProt Q84ND9 56-1034, fluorescent dye RED-tris-NTA (Monolith His-Tag Labeling Kit) on the His tag).
T1 construct: DNA polymerase 1B, Arabidopsis thaliana, At3g20540; also called his-tagged Pol1B; DNA polymerase 1B; source: recombinant, purified
T1 sequence (looked up): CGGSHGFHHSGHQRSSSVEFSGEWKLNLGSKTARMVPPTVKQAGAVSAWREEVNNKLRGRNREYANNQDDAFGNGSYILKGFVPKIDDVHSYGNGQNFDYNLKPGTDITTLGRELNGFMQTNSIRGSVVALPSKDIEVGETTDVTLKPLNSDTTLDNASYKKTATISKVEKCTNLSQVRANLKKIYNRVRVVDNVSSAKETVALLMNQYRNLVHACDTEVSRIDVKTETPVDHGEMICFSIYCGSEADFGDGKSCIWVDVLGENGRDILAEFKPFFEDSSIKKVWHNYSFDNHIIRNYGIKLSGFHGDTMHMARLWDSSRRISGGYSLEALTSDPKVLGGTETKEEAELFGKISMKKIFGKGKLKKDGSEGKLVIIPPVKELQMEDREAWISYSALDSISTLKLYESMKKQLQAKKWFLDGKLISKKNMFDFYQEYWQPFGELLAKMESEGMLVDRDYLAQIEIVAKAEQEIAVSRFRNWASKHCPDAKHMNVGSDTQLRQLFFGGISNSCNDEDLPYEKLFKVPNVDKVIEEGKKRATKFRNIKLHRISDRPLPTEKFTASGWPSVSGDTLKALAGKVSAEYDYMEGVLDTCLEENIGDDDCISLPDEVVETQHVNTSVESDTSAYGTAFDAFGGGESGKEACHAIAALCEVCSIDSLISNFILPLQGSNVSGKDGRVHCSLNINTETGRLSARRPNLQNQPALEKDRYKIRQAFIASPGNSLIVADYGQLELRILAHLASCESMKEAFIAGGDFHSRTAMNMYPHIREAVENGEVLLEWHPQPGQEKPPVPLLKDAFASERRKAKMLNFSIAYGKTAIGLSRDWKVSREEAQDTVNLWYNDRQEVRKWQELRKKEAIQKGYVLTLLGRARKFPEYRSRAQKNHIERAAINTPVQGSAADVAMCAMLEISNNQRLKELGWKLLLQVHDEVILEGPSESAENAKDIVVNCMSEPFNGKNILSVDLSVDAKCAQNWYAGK
Put plainly: MST; His-tagged Pol1B labelled with RED-tris-NTA, constant 20 nM (10 nM in the results text); ligands in 16 serial dilutions; PBS + 0.05% Tween; Monolith NT.115p, 10% LED power, 50% MST power, standard capillaries. The note with it: both partners purified.

Broadly, the Kd is the constant that tells how readily two partners part at equilibrium.

Chain of T7 primase-helicase (Escherichia phage T7) (P03692 whole entry): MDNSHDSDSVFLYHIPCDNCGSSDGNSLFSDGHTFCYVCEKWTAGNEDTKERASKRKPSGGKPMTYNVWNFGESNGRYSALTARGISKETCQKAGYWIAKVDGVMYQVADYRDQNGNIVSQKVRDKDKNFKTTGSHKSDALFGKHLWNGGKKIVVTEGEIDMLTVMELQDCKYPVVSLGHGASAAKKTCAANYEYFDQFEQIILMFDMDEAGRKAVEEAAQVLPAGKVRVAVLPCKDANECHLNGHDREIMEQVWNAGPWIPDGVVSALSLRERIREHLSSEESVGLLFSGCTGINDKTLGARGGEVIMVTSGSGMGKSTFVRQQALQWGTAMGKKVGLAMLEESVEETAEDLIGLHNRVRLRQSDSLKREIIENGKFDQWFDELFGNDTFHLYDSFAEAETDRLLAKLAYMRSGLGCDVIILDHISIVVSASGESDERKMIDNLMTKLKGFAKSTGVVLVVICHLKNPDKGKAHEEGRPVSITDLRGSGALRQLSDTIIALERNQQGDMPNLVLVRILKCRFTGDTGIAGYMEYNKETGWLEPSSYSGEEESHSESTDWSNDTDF
Chain of DnaE (Bacillus subtilis) (O34623 whole entry): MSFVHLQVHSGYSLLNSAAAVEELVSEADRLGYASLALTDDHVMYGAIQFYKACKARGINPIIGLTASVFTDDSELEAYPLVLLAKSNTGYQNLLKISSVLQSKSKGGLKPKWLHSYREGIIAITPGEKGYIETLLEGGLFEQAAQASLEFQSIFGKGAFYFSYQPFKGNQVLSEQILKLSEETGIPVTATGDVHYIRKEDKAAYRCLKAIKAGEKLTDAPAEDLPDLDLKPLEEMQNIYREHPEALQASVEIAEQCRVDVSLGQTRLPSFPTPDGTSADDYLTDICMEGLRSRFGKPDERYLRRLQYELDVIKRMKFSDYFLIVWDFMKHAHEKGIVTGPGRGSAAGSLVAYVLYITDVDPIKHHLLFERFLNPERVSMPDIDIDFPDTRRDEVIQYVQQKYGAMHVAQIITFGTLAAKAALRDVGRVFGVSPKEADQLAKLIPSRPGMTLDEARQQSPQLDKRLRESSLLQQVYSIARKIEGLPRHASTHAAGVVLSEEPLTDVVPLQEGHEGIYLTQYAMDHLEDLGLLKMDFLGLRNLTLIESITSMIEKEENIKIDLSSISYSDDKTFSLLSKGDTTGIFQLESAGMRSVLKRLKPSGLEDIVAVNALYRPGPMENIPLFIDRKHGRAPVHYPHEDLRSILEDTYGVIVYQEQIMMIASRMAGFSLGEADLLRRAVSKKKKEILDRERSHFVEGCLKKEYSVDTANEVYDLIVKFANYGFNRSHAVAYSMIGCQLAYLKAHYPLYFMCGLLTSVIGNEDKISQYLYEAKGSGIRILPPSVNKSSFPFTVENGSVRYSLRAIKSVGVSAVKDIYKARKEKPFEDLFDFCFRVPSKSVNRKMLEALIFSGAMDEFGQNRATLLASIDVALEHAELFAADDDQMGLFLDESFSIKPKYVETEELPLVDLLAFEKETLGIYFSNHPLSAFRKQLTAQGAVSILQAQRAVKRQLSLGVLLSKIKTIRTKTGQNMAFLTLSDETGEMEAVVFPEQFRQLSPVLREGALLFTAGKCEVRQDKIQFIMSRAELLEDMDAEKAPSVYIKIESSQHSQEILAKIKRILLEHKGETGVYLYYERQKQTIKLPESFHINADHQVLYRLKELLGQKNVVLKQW

In the case of DnaG primase (from UniProt P05096), the equilibrium dissociation constant (Kd) with DnaE (Bacillus subtilis) is 750 nM.

Consider T7 DNA polymerase (from UniProt P00581), for which the Kd in test [1] was 440 nM.

B1: Twinkle primase domain (residues 92-410) (domain or fragment, Arabidopsis thaliana, UniProt B5X582 92-410, looked up)
chain: TPVDTEVEADKRVVLSRLVTLRRKLAEQGVDAENCPPGQHSGLICPTCEGGNSGEKSLSLFIAPDGSSATWNCFRGKCGLKGGVRADGGLASADPIEKVERKITVEGIELEPLCDEIQDYFAARAISRKTLERNRVMQKRIGDEIVIAFTYWQRGELVSCKYRSLTKMFFQERKTRRILYGLDDIEKTSEVIIVEGEIDKLAMEEAGFLNCVSVPDGAPAKVSSKEIPSEDKDTKYKFLWNCNDYLKKASRIVIATDGDGPGQAMAEEIARRLGKERCWRVKWPKKSEDEHFKDANEVLMSKGPHLLKEAILDAEPYPI
notes: Twinkle, Arabidopsis thaliana, At1g30680, primase domain, residues 92-410; Tag removed with PreScission protease; also called primase module
As for B1, in test [2], the Kd stood at 810 nM.

B2: full-length Twinkle (recombinant, without histidine tag) (enzyme, Arabidopsis thaliana, UniProt B5X582 82-709, looked up)
chain: SSYNSIPRVPTPVDTEVEADKRVVLSRLVTLRRKLAEQGVDAENCPPGQHSGLICPTCEGGNSGEKSLSLFIAPDGSSATWNCFRGKCGLKGGVRADGGLASADPIEKVERKITVEGIELEPLCDEIQDYFAARAISRKTLERNRVMQKRIGDEIVIAFTYWQRGELVSCKYRSLTKMFFQERKTRRILYGLDDIEKTSEVIIVEGEIDKLAMEEAGFLNCVSVPDGAPAKVSSKEIPSEDKDTKYKFLWNCNDYLKKASRIVIATDGDGPGQAMAEEIARRLGKERCWRVKWPKKSEDEHFKDANEVLMSKGPHLLKEAILDAEPYPILGLFSFKDFFDEIDAYYDRTHGHEYGVSTGWKNLDNLYSVVPGELTVVTGIPNSGKSEWIDAMLCNLNHSVGWKFALCSMENKVRDHARKLLEKHIKKPFFDADYGRSVQRMSVEEKDEGKKWLNDTFYPIRCEMDSLPSIDWVLERAKAAVLRYGIRGLVIDPYNELDHQRTPRQTETEYVSQMLTKIKRFSQHHSCHVWFVAHPKQLQHWDGGAPNLYDISGSAHFINKCDNGIIVHRNRDENAGPLDLVQIGVRKVRNKVAGQIGDAYLCYDRTTGSYSDSPVTPGMPERRSPKRY
notes: Twinkle, Arabidopsis thaliana, At1g30680; called full-length in the results and legend; the methods name 'Twinkle lacking the first 91 codons' as the template of the domain constructs; Used without a histidine tag; It may in fact be the form lacking the first 91 residues (92-709); also called the full-length protein
As to B2, in test [2], the Kd was 1260 nM.

B3: Twinkle helicase domain (401-709) (domain or fragment, Arabidopsis thaliana, UniProt B5X582 401-709, looked up)
chain: AILDAEPYPILGLFSFKDFFDEIDAYYDRTHGHEYGVSTGWKNLDNLYSVVPGELTVVTGIPNSGKSEWIDAMLCNLNHSVGWKFALCSMENKVRDHARKLLEKHIKKPFFDADYGRSVQRMSVEEKDEGKKWLNDTFYPIRCEMDSLPSIDWVLERAKAAVLRYGIRGLVIDPYNELDHQRTPRQTETEYVSQMLTKIKRFSQHHSCHVWFVAHPKQLQHWDGGAPNLYDISGSAHFINKCDNGIIVHRNRDENAGPLDLVQIGVRKVRNKVAGQIGDAYLCYDRTTGSYSDSPVTPGMPERRSPKRY
notes: Twinkle, Arabidopsis thaliana, At1g30680, helicase domain, residues 401-709; Tags of the pCri-1b vector removed with TEV protease; also called helicase module; source: cloned into pCri-1b, purified (potassium phosphate pH 7.0 buffer)
Regarding B3, the Kd in test [2] stood at 1970 nM.

B4: Twinkle zinc finger subdomain (residues 92-186) (domain or fragment, Arabidopsis thaliana, UniProt B5X582 92-186, looked up)
chain: TPVDTEVEADKRVVLSRLVTLRRKLAEQGVDAENCPPGQHSGLICPTCEGGNSGEKSLSLFIAPDGSSATWNCFRGKCGLKGGVRADGGLASADP
notes: Twinkle, Arabidopsis thaliana, At1g30680, zinc finger subdomain, residues 92-186; Tag removed with PreScission protease; also called Zn++ Finger domain; zf
Take B4: the Kd in test [2] was 2170 nM.

The values are drawn from article PMC6554949, “Arabidopsis thaliana organelles mimic the T7 phage DNA replisome with specific interactions between Twinkle protein and DNA polymerases Pol1A and Pol1B” (BMC Plant Biology, 2019).
